{"source": "paper PMC11012335", "assay_in_all_cases": "EMSA", "key": {"[1]": {"system": "Hfq K56A/H57A (Escherichia coli K-12 MG1655)", "conditions": "EMSA: 20 mM Tris-HCl pH 7.6, 0.5 M NaCl, 1 mM EDTA, 1% glycerol, 20 min at 25 C, native PAGE in 0.5x TBE at 4 C"}, "[2]": {"system": "Hfq K56A (Escherichia coli K-12 MG1655)", "conditions": "EMSA: 20 mM Tris-HCl pH 7.6, 0.5 M NaCl, 1 mM EDTA, 1% glycerol, 20 min at 25 C, native PAGE in 0.5x TBE at 4 C"}, "[3]": {"system": "Hfq H57A (Escherichia coli K-12 MG1655)", "conditions": "EMSA: 20 mM Tris-HCl pH 7.6, 0.5 M NaCl, 1 mM EDTA, 1% glycerol, 20 min at 25 C, native PAGE in 0.5x TBE at 4 C"}, "[4]": {"system": "Hfq Q8A (Escherichia coli K-12 MG1655)", "conditions": "EMSA: 20 mM Tris-HCl pH 7.6, 0.5 M NaCl, 1 mM EDTA, 1% glycerol, 20 min at 25 C, native PAGE in 0.5x TBE at 4 C"}, "[5]": {"system": "Hfq Y25D* (Escherichia coli K-12 MG1655)", "conditions": "EMSA: 20 mM Tris-HCl pH 7.6, 0.5 M NaCl, 1 mM EDTA, 1% glycerol, 20 min at 25 C, native PAGE in 0.5x TBE at 4 C"}, "[6]": {"molecular_target": "Hfq Y25D* Y25D (Escherichia coli K-12 MG1655) (UniProt P0A6X3)", "conditions": "EMSA: 20 mM Tris-HCl pH 7.6, 0.5 M NaCl, 1 mM EDTA, 1% glycerol, 20 min at 25 C; native PAGE in 0.5x TBE at 4 C"}, "[7]": {"molecular_target": "Hfq K56A/H57A K56A;H57A (Escherichia coli K-12 MG1655) (UniProt P0A6X3)", "conditions": "EMSA: 20 mM Tris-HCl pH 7.6, 0.5 M NaCl, 1 mM EDTA, 1% glycerol, 20 min at 25 C; native PAGE in 0.5x TBE at 4 C"}, "[8]": {"molecular_target": "Hfq H57A H57A (Escherichia coli K-12 MG1655) (UniProt P0A6X3)", "conditions": "EMSA: 20 mM Tris-HCl pH 7.6, 0.5 M NaCl, 1 mM EDTA, 1% glycerol, 20 min at 25 C; native PAGE in 0.5x TBE at 4 C"}, "[9]": {"molecular_target": "Hfq Q8A Q8A (Escherichia coli K-12 MG1655) (UniProt P0A6X3)", "conditions": "EMSA: 20 mM Tris-HCl pH 7.6, 0.5 M NaCl, 1 mM EDTA, 1% glycerol, 20 min at 25 C; native PAGE in 0.5x TBE at 4 C"}, "[10]": {"molecular_target": "Hfq K56A K56A (Escherichia coli K-12 MG1655) (UniProt P0A6X3)", "conditions": "EMSA: 20 mM Tris-HCl pH 7.6, 0.5 M NaCl, 1 mM EDTA, 1% glycerol, 20 min at 25 C; native PAGE in 0.5x TBE at 4 C"}}, "data": [{"substance": "DsrA", "values": [{"measurement": "binding signal (% of WT Hfq binding)", "setting": "[1]; 43/174 nM Hfq monomer", "result": 13.2}, {"measurement": "binding signal (% of WT Hfq binding)", "setting": "[2]; 43/174 nM Hfq monomer", "result": 24.4}, {"measurement": "binding signal (% of WT Hfq binding)", "setting": "[3]; 43/174 nM Hfq monomer", "result": 66.5}, {"measurement": "binding signal (% of WT Hfq binding)", "setting": "[4]; 43/174 nM Hfq monomer", "result": 46.9}, {"measurement": "binding signal (% of WT Hfq binding)", "setting": "[5]; 43/174 nM Hfq monomer", "result": 163}]}, {"substance": "GGGAACACAUCAGAUUUCCUGGUGUAACGAAUUUUUUAAGUGCUUCUUGCUUAAGCAAGUUUCAUCCCGACCCCCUCAGGGUCGGGAUUU [DsrA]", "values": [{"measurement": "binding signal (% of WT Hfq binding)", "setting": "[6]", "result": 163}, {"measurement": "binding signal (% of WT Hfq binding)", "setting": "[7]", "result": 13.2}, {"measurement": "binding signal (% of WT Hfq binding)", "setting": "[8]", "result": 66.5}, {"measurement": "binding signal (% of WT Hfq binding)", "setting": "[9]", "result": 46.9}, {"measurement": "binding signal (% of WT Hfq binding)", "setting": "[10]", "result": 24.4}]}, {"substance": "RNA I FL", "values": [{"measurement": "binding signal (% of WT Hfq binding)", "setting": "[1]; 130/260 nM Hfq monomer", "result": 13.8}, {"measurement": "binding signal (% of WT Hfq binding)", "setting": "[2]; 130/260 nM Hfq monomer", "result": 36.1}, {"measurement": "binding signal (% of WT Hfq binding)", "setting": "[3]; 130/260 nM Hfq monomer", "result": 72.7}, {"measurement": "binding signal (% of WT Hfq binding)", "setting": "[4]; 130/260 nM Hfq monomer", "result": 86.5}, {"measurement": "binding signal (% of WT Hfq binding)", "setting": "[5]; 130/260 nM Hfq monomer", "result": 125}]}]}
